Data as given in patent US20220387487A1, “COMPOSITIONS AND METHODS FOR TREATMENT OF CANCER” (Aleta Biotherapeutics Inc., priority 2019, published 2022).
Values joined by “and” are separate entries in the source; they are usually repeats but may differ in a detail not shown here. Equal entries are not always repeated. One block for each molecule: values may come before it.

Key:
biotinylated CD33 [1] = biological target: T1, biotinylated CD33 (UniProt P20138 18-259, biotinylated (site not stated)); test: ELISA: fusion protein captured on FMC63, biotinylated CD33, HRP-SA
[2] = biological target: T2, CLL-1 (CLEC12A) on CLL-1 positive cell lines (U937, OCI-AML-5) (human, UniProt Q5QGZ9 1-265); test: flow cytometry on U937 cells (cell line per paragraph 272), purified fusion protein, detection with FMC63-PE, % Binding; the cells carry both CLEC12A and CD33, the value is for the whole cell and is not split between the two antigens
T2 construct: whole, on cells; also called MICL
T2 sequence: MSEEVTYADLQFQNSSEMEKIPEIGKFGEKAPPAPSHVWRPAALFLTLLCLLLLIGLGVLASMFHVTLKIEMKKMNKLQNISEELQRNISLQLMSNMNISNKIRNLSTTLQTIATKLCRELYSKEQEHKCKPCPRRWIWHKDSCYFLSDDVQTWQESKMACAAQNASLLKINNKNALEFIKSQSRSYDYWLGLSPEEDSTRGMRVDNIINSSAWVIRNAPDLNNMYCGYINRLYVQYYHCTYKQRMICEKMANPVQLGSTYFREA

CD33 on U937 cells [3] = biological target: T3, CD33 on U937 cells (UniProt P20138 18-364, limits assumed); test: as above
T3 construct: whole, on cells

CD33 on U937 cells [4] = biological target: T3, CD33 on U937 cells; test: flow cytometry on U937 cells (cell line per paragraph 272), purified fusion protein, detection with FMC63-PE, % Binding
CLEC12A = biological target: T4, CLEC12A (Homo sapiens, UniProt Q5QGZ9); details: CLEC12A from AbClonal or cDNA from Genscript; previous studies; cited from earlier work
T4 construct: literature AbClonal (protein); Genscript (cDNA)
T4 sequence (Q5QGZ9 1-275 isoform Q5QGZ9-1): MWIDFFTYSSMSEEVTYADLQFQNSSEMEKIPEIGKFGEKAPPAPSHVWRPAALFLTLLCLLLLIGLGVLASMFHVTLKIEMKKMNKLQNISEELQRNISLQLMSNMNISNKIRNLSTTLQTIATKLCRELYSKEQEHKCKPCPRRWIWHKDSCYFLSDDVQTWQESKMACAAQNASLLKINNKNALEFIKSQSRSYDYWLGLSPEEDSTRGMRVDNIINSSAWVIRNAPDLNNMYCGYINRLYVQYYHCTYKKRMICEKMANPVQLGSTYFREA

[5] = biological target: T2, CLL-1 (CLEC12A) on CLL-1 positive cell …; test: flow cytometry on CLL-1 positive U937 cells, FMC63-PE detection
[6] = biological target: T2, CLL-1 (CLEC12A) on CLL-1 positive cell …; test: cell-based or functional assay
[7] = biological target: T2, CLL-1 (CLEC12A) on CLL-1 positive cell …; test: flow cytometry on CLL-1 positive U937 cells, expressed fusion protein, detection with FMC63-PE, % Binding
[8] = biological target: T2, CLL-1 (CLEC12A) on CLL-1 positive cell …; test: flow cytometry on U937 cells (cell line per paragraph 272), purified fusion protein, detection with FMC63-PE, % Binding
[9] = biological target: T2, CLL-1 (CLEC12A) on CLL-1 positive cell …; test: flow cytometry on U937 cells, purified fusion protein, a-His-PE detection, % Binding
[10] = biological target: T5, full-length CLEC12A, amino acid 254 K version, on transfected HEK-293T cells (Homo sapiens (Human), UniProt Q5QGZ9 1-265); test: flow cytometry on transfected HEK-293T cells, HIB19-PE detection
T5 construct: GenScript cDNA, UniProt Q5QGZ9-1 as printed; also called K form; K version of CLEC12A
T5 sequence: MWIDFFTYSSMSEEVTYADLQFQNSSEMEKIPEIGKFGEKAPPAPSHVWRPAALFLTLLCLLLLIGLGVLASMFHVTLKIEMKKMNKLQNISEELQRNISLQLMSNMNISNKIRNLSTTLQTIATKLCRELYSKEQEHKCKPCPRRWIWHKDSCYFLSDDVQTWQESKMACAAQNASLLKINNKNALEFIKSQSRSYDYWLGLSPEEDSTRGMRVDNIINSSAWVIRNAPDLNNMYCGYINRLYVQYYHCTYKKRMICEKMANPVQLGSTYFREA

biotinylated CD33 [11] = biological target: T1, biotinylated CD33; test: ELISA: fusion protein captured on FMC63, biotinylated CD33 at 0.5 µg/ml, HRP-SA
[12] = biological target: CLEC12A as named in the ELISA column of Table 8 (UniProt Q5QGZ9); test: ELISA (protocol as printed: FMC63 coat, fusion protein titrated, HRP anti-His)
[13] = biological target: T6, full-length CLEC12A, version with Q at amino acid 254, on transfected HEK-293T cells (Homo sapiens (Human), UniProt Q5QGZ9 1-265); test: flow cytometry on HEK-293T cells transfected with CLEC12A 'Q' version, purified fusion protein, detection with HIB19-PE, % Binding
T6 construct: Generated by mutagenesis of the K version; also called Q form
T6 sequence: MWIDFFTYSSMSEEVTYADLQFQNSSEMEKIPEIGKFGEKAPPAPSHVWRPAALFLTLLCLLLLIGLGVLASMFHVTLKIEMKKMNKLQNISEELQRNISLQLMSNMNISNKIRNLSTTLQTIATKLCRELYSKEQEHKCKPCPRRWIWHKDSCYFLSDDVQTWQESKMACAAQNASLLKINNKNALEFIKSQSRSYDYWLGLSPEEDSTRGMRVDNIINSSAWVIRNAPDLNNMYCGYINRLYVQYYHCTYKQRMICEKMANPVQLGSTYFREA

EC50 (biotinylated CD33 [1]): 0.0021 µg/mL and 0.0292 nM
EC50 [2]: 0.00796 µg/mL and 0.111 nM
EC50 (CD33 on U937 cells [3]): 0.00796 µg/mL and 0.111 nM
B1: anti-CD33 scFv-anti-CLL VHH (2H3)-CD19 variant (construct #440) (other)
chain: QVQLVQSGAEVKKPGESVKVSCKASGYTFTNYGMNWVKQAPGQGLEWMGWINTYTGEPTYADKFQGRVTMTTDTSTSTAYMEIRNLGGDDTAVYYCARWSWSDGYYVYFDYWGQGTSVTVSSGGGGSGGGGSGGGGSDIVMTQSPDSLTVSLGERTTINCKSSQSVLDSSTNKNSLAWYQQKPGQPPKLLLSWASTRESGIPDRFSGSGSGTDFTLTIDSPQPEDSATYYCQQSAHFPITFGQGTRLEIKGGGGSGGGGSGGGGSGGGGSQVQLQESGGGLVQAGGSLRLSCVASGSIRSINVMGWYRQAPGKQRELVAACASDGNTYYADSVKGRFTISRDNAEKTVYLQMNNLKPDDTAVYYCDANSRGNYYSGQGTQVTVSSTSGPGGQGAGGGGSGGGGSGGGGSGGGGSPEEPLVVKVEEGDTAALWCLKGTSDGPTQQLTWSRESPLKPFLKYSLGVPGLGVHVRPDAISVVIRNVSQQMGGFYLCQPGPPSEKAWQPGWTVNVEGSGELFRWNVSDLGGLGCGLKNRSSEGPSSPSGKLMSPKLYVWAKDRPEIWEGEPPCLPPRDSLNQSLSRDLTVAPGSTLWLSCGVPPDSVSRGPLSWTHVHPKGPKSLLSLELKDDRPARDMWVMGTSLMLPRATAQDAGKWYCHRGNLTMSFHLEITARPSRHHHHHH

B2: anti-CD33 scFv-variant CD19-His (construct #410) (other)
chain: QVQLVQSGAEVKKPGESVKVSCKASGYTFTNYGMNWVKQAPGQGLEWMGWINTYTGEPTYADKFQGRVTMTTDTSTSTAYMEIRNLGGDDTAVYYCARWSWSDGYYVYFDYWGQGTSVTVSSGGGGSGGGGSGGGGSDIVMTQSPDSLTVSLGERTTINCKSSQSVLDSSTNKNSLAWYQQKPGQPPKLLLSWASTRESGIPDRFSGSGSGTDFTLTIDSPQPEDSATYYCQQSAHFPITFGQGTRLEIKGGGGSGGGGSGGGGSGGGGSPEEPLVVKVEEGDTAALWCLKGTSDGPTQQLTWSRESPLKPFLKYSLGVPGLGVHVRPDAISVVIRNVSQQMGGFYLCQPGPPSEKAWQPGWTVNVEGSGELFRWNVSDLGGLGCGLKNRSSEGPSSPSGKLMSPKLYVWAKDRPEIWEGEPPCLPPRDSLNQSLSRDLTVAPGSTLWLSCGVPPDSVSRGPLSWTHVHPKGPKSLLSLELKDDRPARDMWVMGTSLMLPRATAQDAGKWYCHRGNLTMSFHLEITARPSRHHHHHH
notes: also called anti-CD33 scFv fusion protein
EC50 (CD33 on U937 cells [4]): 0.0213 µg/mL and 0.37 nM
EC50 (biotinylated CD33 [1]): 0.003 µg/mL and 0.0522 nM

B3: VHH clone 2H3: anti-CLL-1/CLEC12A VHH (protein)
VHH: QVQLQESGGGLVQAGGSLRLSCVASGSIRSINVMGWYRQAPGKQRELVAACASDGNTYYADSVKGRFTISRDNAEKTVYLQMNNLKPDDTAVYYCDANSRGNYYSGQGTQVTVSS
binding to CLEC12A containing a Lysine residue at amino acid 254 (CLEC12A): did not bind

B4: CD19 variant-anti-CLL-1 VHH(1B12) (construct #321) (other)
chain: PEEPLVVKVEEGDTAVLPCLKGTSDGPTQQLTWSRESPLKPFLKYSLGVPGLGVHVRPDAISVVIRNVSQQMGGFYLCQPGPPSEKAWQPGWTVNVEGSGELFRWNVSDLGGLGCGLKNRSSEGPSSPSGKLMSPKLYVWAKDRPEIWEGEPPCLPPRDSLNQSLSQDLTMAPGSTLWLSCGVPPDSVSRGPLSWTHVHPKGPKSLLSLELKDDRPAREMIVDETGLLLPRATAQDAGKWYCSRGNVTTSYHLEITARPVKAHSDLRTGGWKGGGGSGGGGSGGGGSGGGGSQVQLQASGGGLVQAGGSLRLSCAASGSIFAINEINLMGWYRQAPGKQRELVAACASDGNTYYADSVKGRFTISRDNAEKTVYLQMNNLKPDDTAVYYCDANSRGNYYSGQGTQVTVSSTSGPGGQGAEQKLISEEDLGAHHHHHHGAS
notes: Fusion of a CD19 variant extracellular domain, linker, anti-CLL-1 VHH 1B12 and myc-His tag
EC50 [5]: 3 nM
CLEC12A-cell cytotoxicity (IC50 n = 2-3) [6]: 0.027 nM

EC50 [7]: 0.0449 µg/mL
EC50 [8]: 0.00406 µg/mL and 0.0865 nM
EC50 [5]: 1 nM
EC50 [9]: 0.00114 µg/mL and 0.0261 nM
fold weaker binding than to the Q form [10]: > 10000 fold
binding result (biotinylated CD33 [11]): no binding
EC50 [12]: 0.013 nM
EC50 [13]: 0.0048 nM and 0.00021 µg/mL
B5: anti-CLL-1 VHH(2H3)-CD19 variant (construct #330) (other)
chain: QVQLQESGGGLVQAGGSLRLSCVASGSIRSINVMGWYRQAPGKQRELVAACASDGNTYYADSVKGRFTISRDNAEKTVYLQMNNLKPDDTAVYYCDANSRGNYYSGQGTQVTVSSTSGPGGQGAGGGGSGGGGSGGGGSGGGGSPEEPLVVKVEEGDTAALWCLKGTSDGPTQQLTWSRESPLKPFLKYSLGVPGLGVHVRPDAISVVIRNVSQQMGGFYLCQPGPPSEKAWQPGWTVNVEGSGELFRWNVSDLGGLGCGLKNRSSEGPSSPSGKLMSPKLYVWAKDRPEIWEGEPPCLPPRDSLNQSLSRDLTVAPGSTLWLSCGVPPDSVSRGPLSWTHVHPKGPKSLLSLELKDDRPARDMWVMGTSLMLPRATAQDAGKWYCHRGNLTMSFHLEITARPSRHHHHHH
notes: Fusion of anti-CLL-1 VHH 2H3, linker, CD19 variant extracellular domain and His tag; also called fusion protein #330; single VHH #330 fusion protein
CLEC12A-cell cytotoxicity (IC50 n = 2-3) [6]: 0.0078 nM
